From paper doi:10.1101/2022.02.05.479199 come the findings set out here.

This data set has as its target RPA-DBD-D-Cy3;Rtt105-Cy5 (C13S) C13S (Saccharomyces cerevisiae;Saccharomyces cerevisiae?) (UniProt P22336+P26754+P26755+P40063). Kind of data set: FRET titration.

Sequence of RPA-DBD-D-Cy3;Rtt105-Cy5 (C13S) C13S (Saccharomyces cerevisiae;Saccharomyces cerevisiae?) (P22336 whole entry, chain 1 of 4): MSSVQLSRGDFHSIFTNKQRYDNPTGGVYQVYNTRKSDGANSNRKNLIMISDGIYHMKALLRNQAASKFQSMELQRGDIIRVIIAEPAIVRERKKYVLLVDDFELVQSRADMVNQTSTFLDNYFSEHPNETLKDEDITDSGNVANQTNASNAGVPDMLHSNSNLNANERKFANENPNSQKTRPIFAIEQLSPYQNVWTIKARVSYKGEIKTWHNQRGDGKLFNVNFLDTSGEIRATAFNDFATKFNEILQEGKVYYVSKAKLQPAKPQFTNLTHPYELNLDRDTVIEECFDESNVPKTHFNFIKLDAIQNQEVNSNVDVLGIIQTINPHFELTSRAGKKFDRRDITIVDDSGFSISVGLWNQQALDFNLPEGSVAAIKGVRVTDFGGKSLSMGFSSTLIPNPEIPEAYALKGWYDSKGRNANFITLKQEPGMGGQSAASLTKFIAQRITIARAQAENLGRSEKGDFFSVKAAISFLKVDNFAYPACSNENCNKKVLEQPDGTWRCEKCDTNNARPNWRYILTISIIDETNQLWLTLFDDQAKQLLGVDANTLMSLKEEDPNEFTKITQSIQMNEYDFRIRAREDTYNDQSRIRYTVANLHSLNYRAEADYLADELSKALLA
Sequence of RPA-DBD-D-Cy3;Rtt105-Cy5 (C13S) C13S (Saccharomyces cerevisiae;Saccharomyces cerevisiae?) (P26754 whole entry, chain 2 of 4): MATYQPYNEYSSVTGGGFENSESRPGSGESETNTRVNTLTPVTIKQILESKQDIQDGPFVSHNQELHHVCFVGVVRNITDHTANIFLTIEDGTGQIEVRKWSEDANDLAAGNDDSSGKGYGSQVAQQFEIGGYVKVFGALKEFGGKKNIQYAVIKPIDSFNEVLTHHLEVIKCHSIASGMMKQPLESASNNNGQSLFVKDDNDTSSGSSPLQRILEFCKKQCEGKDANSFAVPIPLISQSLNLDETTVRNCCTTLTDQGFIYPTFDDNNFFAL
Sequence of RPA-DBD-D-Cy3;Rtt105-Cy5 (C13S) C13S (Saccharomyces cerevisiae;Saccharomyces cerevisiae?) (P26755 whole entry, chain 3 of 4): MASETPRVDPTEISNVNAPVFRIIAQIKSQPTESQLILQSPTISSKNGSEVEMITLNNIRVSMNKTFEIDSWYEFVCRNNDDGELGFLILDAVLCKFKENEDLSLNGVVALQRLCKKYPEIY
Sequence of RPA-DBD-D-Cy3;Rtt105-Cy5 (C13S) C13S (Saccharomyces cerevisiae;Saccharomyces cerevisiae?) (P40063 whole entry C13S, chain 4 of 4): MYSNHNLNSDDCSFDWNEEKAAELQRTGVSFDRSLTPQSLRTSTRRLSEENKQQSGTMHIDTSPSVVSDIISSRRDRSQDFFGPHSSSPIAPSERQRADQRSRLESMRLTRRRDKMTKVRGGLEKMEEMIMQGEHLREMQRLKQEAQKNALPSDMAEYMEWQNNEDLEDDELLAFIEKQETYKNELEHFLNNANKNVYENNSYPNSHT

The sequence “TTTTTTTTTTTTTTTTTTTTTTTTTTTTTTTTTTT [(dT)35]” came in with a K half of 130 nM.

“TTTTTTTTTTTTTTTTTTTTTTTTTTTTTTTTTTTTTTTTTTTTTTTTTTTTTTTTTTTTTTTTTTTTTT [(dT)70]” yielded a K half of 42.8 nM.
